Data on 5 sequences can be found in patent US20210054030.

Some results are limits rather than exact numbers.

Data set [1] concerns TALE-(CV)3-VP64 (Xanthomonas (TALE scaffold)?). In words: cell_activity. The following applies: HEK293T.
For data set [2], the system named is TALE-(NP)3-VP64 (Xanthomonas (TALE scaffold)?). Nature of the data set: cell_activity. The following applies: HEK293T.
Data set [3] concerns TALE-(FT)3-VP64 (Xanthomonas (TALE scaffold)?). Nature of the data set: cell_activity. The following applies: HEK293T.
The subject of data set [4] is TALE-(CP)3-VP64 (Xanthomonas (TALE scaffold)?). In words: cell_activity. The following applies: HEK293T.
For data set [5], the system named is TALE-HD (MAPK6 target) (Xanthomonas (TALE scaffold)?). Nature of the data set: inhibition. The following applies: MspI protection, 25 C.
The test system of data set [6] is TET1 TALE-VP64 (RG) (Xanthomonas (TALE scaffold)?). Nature of the data set: cell_activity. Particulars: 5mC at CpG (cellular, high); HeLa.
Setting [7] is: 6mA at bases 7-9 of the site, forward strand.

As for “CTGGCCAAATACGTA (double strand) [6mA reporter]”, the activity (fold EGFP induction) was greater than 5 in data set [1] (setting [7]); greater than 5 in data set [2] (6mA at bases 7-9 of the site, forward strand, strongest of the 6mA-specific RVDs); greater than 5 in data set [3] (setting [7]); greater than 5 in data set [4] (setting [7]).

Regarding “TTCAGCTGGATCCCGGGAGGAGCGGATATAACCAGG (double strand) [MAPK6 probe, 5mC]”, the binding signal (fold higher Ki than for C) in data set [5] (5mC at second C of the MspI site CCGG (C14)) was greater than 30.

In the case of “TTCAGCTGGATCCCGGGAGGAGCGGATATAACCAGG (double strand) [MAPK6 probe, 5hmC]”, the binding signal (fold higher Ki than for C) in data set [5] (5hmC at second C of the MspI site CCGG (C14)) was greater than 30.

“CTGGCCAAATACGTA (double strand) [A reporter]”: the 6mA/A selectivity ratio in data set [1], in data set [2], in data set [3] and in data set [4] was > 5 6mA/A ratio each time.

“TAGGCGTCCTCCGCGAC (double strand) [TET1 promoter, HeLa (highly methylated)]” displayed an activity (fold induction) in data set [6] of 10.
